From patent US20210171647A1

How the values were obtained:
[1] = biological target: xPro1.FL-x8: CRDmox40_1-3 (human; mouse) (UniProt P47741); experiment: FACS, transfected 293F cells, antibody 1 ug/mL
[2] = biological target: xPro1.FL-x1: CRDmox40_1 (human; mouse) (UniProt P47741); experiment: FACS, transfected 293F cells, antibody 1 ug/mL
[3] = biological target: xPro1.FL-x10: CRDmox40_1,2,4 (human; mouse) (UniProt P47741); experiment: FACS, transfected 293F cells, antibody 1 ug/mL
[4] = biological target: xPro1.FL-x11: CRDmox40_1,3,4 (human; mouse) (UniProt P47741); experiment: FACS, transfected 293F cells, antibody 1 ug/mL
[5] = biological target: xPro1.FL.x2: CRDmox40_2 (human; mouse) (UniProt P43489); experiment: FACS, transfected 293F cells, antibody 1 ug/mL
[6] = biological target: xPro1.FL-x4: CRDmox40_4 (human; mouse) (UniProt P43489); experiment: FACS, transfected 293F cells, antibody 1 ug/mL
[7] = biological target: xPro1.FL-x7: CRDmox40_3-4 (human; mouse) (UniProt P43489); experiment: FACS, transfected 293F cells, antibody 1 ug/mL
[8] = biological target: xPro1.FL-x9: CRDmox40_2-4 (human; mouse) (UniProt P43489); experiment: FACS, transfected 293F cells, antibody 1 ug/mL
[9] = biological target: xPro1.FL-x3: CRDmox40_3 (human; mouse) (UniProt P43489); experiment: FACS, transfected 293F cells, antibody 1 ug/mL
[10] = biological target: xPro1.FL-x5: CRDmox40_1-2 (human; mouse) (UniProt P47741); experiment: FACS, transfected 293F cells, antibody 1 ug/mL
[11] = biological target: xPro1.FL-x6: CRDmox40_2-3 (human; mouse) (UniProt P43489); experiment: FACS, transfected 293F cells, antibody 1 ug/mL
[12] = biological target: human OX40 extracellular domain (ECD) protein (human) (UniProt P43489); experiment: SPR, Biacore T200, antibody captured, OX40 as analyte
[13] = biological target: mouse OX40 (mPro1) on transfected 293F cells (mouse) (UniProt P47741); experiment: FACS, transfected 293F cells, antibody 2 ug/mL
[14] = biological target: human CD40 (hPro40) on transfected 293F cells (human) (UniProt P25942); experiment: FACS, transfected 293F cells, antibody 2 ug/mL
[15] = biological target: human OX40, full-length, on cells (human) (UniProt P43489); experiment: FACS, transfected 293F cells, antibody 2 ug/mL
[16] = biological target: human OX40, full-length, on cells (human) (UniProt P43489); experiment: flow cytometry on activated human CD4+ T cells
[17] = biological target: human OX40 extracellular domain (ECD) protein (human) (UniProt P43489); experiment: competition ELISA: human OX40 ECD coated, antibody titrated in a mix with a constant concentration of OX40L, bound OX40L detected at OD450
[18] = biological target: human OX40, full-length, on cells (human) (UniProt P43489); experiment: flow cytometry on human OX40 transfected CHO-K1 cells
[19] = biological target: human OX40 extracellular domain (ECD) protein (human) (UniProt P43489); experiment: epitope binning by competition against labelled BMK10 on human OX40 (self-competition control); the antibody named in the legend box is titrated; the text describes an ELISA, the axis on the sheet reads MFI
[20] = biological target: human OX40, full-length, on cells (human) (UniProt P43489); experiment: flow cytometry, CHO-K1 cells expressing human OX40, MESF beads
[21] = biological target: human OX40, full-length, on cells (human) (UniProt P43489); experiment: flow cytometry, MFI against antibody concentration; neither the legend nor paragraph 266 names the cells, target taken as cell-surface human OX40 because the antibodies are anti-OX40

human OX40, full-length, on cells (human), sequence (P43489 29-277): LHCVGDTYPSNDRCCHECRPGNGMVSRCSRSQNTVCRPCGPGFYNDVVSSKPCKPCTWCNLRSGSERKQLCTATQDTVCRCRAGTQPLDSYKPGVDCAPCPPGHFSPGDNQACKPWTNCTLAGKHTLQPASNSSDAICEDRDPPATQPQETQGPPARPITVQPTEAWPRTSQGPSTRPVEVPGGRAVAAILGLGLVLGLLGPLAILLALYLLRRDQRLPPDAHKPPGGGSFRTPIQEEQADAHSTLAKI
xPro1.FL-x9: CRDmox40_2-4 (human; mouse), sequence (P43489 other isoform, or with tags, fused parts or gaps, form in doubt): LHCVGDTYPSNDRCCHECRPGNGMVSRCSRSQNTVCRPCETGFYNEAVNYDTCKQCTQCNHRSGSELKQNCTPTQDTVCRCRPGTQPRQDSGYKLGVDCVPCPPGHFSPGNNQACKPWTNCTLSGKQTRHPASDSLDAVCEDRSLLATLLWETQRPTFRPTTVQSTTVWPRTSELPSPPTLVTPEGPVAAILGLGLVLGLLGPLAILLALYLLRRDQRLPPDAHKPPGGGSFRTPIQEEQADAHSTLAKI
xPro1.FL-x6: CRDmox40_2-3 (human; mouse), sequence (P43489 other isoform, or with tags, fused parts or gaps, form in doubt): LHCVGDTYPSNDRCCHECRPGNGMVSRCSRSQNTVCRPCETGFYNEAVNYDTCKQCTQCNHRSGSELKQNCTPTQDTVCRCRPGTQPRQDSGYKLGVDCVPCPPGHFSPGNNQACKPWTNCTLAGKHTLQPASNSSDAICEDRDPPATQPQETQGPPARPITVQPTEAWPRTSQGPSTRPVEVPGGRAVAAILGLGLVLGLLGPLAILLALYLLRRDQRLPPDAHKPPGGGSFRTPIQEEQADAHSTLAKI
xPro1.FL-x3: CRDmox40_3 (human; mouse), sequence (P43489 other isoform, or with tags, fused parts or gaps, form in doubt): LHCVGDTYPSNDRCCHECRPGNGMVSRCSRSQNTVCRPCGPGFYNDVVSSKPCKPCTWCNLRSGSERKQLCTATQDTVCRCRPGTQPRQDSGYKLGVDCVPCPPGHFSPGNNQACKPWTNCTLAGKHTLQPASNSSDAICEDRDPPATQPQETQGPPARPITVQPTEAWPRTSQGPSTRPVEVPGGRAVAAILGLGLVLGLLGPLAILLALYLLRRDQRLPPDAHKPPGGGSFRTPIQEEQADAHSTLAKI
xPro1.FL-x7: CRDmox40_3-4 (human; mouse), sequence (P43489 other isoform, or with tags, fused parts or gaps, form in doubt): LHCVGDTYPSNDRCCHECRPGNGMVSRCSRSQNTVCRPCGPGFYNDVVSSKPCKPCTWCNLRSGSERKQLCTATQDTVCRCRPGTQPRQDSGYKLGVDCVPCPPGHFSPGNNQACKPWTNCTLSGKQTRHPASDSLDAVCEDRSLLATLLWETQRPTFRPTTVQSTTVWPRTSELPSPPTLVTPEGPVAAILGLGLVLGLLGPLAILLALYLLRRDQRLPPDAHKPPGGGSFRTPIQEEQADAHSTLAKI
xPro1.FL.x2: CRDmox40_2 (human; mouse), sequence (P43489 other isoform, or with tags, fused parts or gaps, form in doubt): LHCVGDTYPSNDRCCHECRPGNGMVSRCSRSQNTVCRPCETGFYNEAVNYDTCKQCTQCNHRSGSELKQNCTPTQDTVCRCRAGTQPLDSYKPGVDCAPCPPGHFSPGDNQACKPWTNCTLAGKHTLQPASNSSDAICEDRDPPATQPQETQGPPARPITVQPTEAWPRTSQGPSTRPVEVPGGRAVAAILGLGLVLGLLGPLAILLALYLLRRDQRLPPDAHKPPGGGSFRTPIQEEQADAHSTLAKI
xPro1.FL-x4: CRDmox40_4 (human; mouse), sequence (P43489 other isoform, or with tags, fused parts or gaps, form in doubt): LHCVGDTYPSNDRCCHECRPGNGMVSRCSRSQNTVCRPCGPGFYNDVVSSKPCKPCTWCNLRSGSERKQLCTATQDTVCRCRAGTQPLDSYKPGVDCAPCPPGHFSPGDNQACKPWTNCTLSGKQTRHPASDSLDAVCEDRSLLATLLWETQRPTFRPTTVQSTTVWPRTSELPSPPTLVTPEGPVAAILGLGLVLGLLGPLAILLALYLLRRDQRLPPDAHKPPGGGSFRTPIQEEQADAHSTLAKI
human OX40 extracellular domain (ECD) protein (human), sequence (P43489 29-214): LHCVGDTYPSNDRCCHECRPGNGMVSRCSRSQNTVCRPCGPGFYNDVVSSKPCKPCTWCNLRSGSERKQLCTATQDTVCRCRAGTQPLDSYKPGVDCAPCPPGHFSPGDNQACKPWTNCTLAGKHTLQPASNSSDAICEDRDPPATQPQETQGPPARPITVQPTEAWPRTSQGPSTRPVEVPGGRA
human CD40 (hPro40) on transfected 293F cells (human), sequence (P25942 21-277): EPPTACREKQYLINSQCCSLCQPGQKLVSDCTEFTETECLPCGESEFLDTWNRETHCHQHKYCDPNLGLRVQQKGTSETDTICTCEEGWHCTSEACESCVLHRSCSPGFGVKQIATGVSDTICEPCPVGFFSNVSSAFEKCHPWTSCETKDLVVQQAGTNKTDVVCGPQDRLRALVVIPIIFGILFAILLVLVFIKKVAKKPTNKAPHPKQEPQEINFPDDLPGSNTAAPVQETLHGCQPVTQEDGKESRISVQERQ
mouse OX40 (mPro1) on transfected 293F cells (mouse), sequence (P47741 20-272): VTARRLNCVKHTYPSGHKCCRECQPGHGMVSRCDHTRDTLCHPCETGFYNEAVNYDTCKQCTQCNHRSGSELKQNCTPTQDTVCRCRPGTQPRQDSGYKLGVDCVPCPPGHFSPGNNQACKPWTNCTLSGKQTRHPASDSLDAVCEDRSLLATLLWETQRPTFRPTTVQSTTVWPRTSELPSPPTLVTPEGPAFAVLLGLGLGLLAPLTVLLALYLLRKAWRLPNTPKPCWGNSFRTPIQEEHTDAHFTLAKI

| MFI [1] | PE + % [1] | MFI [2] | PE + % [2] | MFI [3] | PE + % [3] | MFI [4] | PE + % [4] | MFI [5] | PE + % [5] | MFI [6] | PE + % [6] | MFI [7] | PE + % [7] | MFI [8] | PE + % [8] | MFI [9] | PE + % [9] | MFI [10] | PE + % [10] | Binder | further results |
| --- | --- | --- | --- | --- | --- | --- | --- | --- | --- | --- | --- | --- | --- | --- | --- | --- | --- | --- | --- | --- | --- |
| 42.6 | 0.743% | 5420 | 82.9% | 19600 | 94.4% | 6260 | 70.8% | 23300 | 92.8% | 23200 | 97.7% | 6540 | 81.5% | 80.1 | 0.244% | 2250 | 70% | 21700 | 96.5% | 1.214.23-u1-IgG1K (antibody, V domains shown) VH: QVQLQESGPGLVKPSGTLSLTCVVSGGSISNRNWWSWVRQPPGKGLEWIGEIFHSGNTNYNPSLKSRVTISVDKSKNQFSLKVNSVTAADTAVYYCAKSFAVALDSWGQGTLVTVSS VL: DIQLTQSPSFLSASVGDRVTITCRASQDINSYLAWCQQKPGKAPKLLIYAASSLQSGVPSRFSGTGSGTEFTLTISSLQPEDFATYYCQQLFSYPITFGQGTRLEIK | MFI [11]: 113; PE + % [11]: 2.31% |
|  |  |  |  |  |  |  |  |  |  |  |  |  |  |  |  |  |  |  |  | BMK10 (antibody, from another filing, V domains shown) VH: EVQLVQSGAEVKKPGASVKVSCKASGYTFTDSYMSWVRQAPGQGLEWIGDMYPDNGDSSYNQKFRERVTITRDTSTSTAYLELSSLRSEDTAVYYCVLAPRWYFSVWGQGTLVTVSS VL: DIQMTQSPSSLSASVGDRVTITCRASQDISNYLNWYQQKPGKAPKLLIYYTSRLRSGVPSRFSGSGSGTDFTLTISSLQPEDFATYYCQQGHTLPPTFGQGTKVEIK | kon [12]: 442000 M⁻¹ s⁻¹; MFI [13]: 5000; PE + % [13]: 91.6%; MFI [14]: 28.8; PE + % [14]: 0.068%; MFI [15]: 27600; PE + % [15]: 98.3%; EC50 (read off the curve) [16]: 0.7 nM; IC50 (read off the curve) [17]: 3 nM; EC50 (read off the curve) [18]: 0.6 nM; IC50 (read off the curve) [19]: 6 nM; Kd [20]: 0.23 nM; EC50 (read off the curve) [21]: 0.8 nM |
| 43.2 | 0.678% | 6440 | 75.3% | 42.7 | 0.624% | 9400 | 74% | 49.5 | 0.904% | 24100 | 96.6% | 9160 | 80.3% | 44.1 | 0.668% | 3800 | 66.1% | 61 | 1.73% | 1.134.9-u1-IgG1L (antibody, V domains shown) VH: QVQLQESGPGLVKPSGTLSLTCAVSGGSISSYNWWSWVRQPPGKGLEWIGEIYHGGNTNYNPSLKSRVTMSVDNSKNQFSLKLSSVTAADTAVYYCARAPGDWGGSPYFDFWGQGTLVTVSS VL: SSELTQDPAVSVALGQTVRITCQGDNLRTYYASWYQQKPGQAPILLIYGRNKRPSGIPDRFSGSSSGNTASLTITGAQAEDEAAYYCNSRDSSGNPVVFGGGTKLTVL | MFI [11]: 211; PE + % [11]: 6.75% |
